Literature values, collected in paper PMC5641599 (Molecular Metabolism, 2017).
Like-named read-outs stand apart in the source and are kept apart here.

Legend:
MC4R variants [1] = details: cited from earlier work
MC4R variants [2] = details: cited from earlier work; remark: listed apart in the source
MC4R variants [3] = details: ref Larsen LH, J Clin Endocrinol Metab, 2005, cited from earlier work
[4] = ref Rong R, Clin Endocrinol, 2006
[5] = COS-7 cell line, ref Hughes DA, Hum Genet, 2009
[6] = COS-7 cell line, ref Brumm H, Obesity, 2012
[7] = ref Wang ZQ, Biochim Biophys Acta, 2011
[8] = COS-7 cell line, ref Hinney A, J Clin Endocrinol Metab, 2006
[9] = ref Fan ZC, J Cell Mol Med, 2009
[10] = ref Srinivasan S, J Clin Invest, 2004
[11] = ref Xiang Z, Biochemistry, 2010
[12] = ref Lubrano-Berthelier C, J Clin Endocrinol Metab, 2006

In the case of C40R, the Cell surface expression (MC4R variants [1]; [4]) is listed as 100 % of WT, the Basal activity (MC4R variants [2]; COS-7 cell line, ref Tarnow P, J Biol Chem, 2003) is listed as 112 % of WT and the Basal activity (MC4R variants [2]; [4]) is listed as 157 % of WT.

In the case of C40Y, the Cell surface expression (MC4R variants [1]; [5]) is listed as 49 % of WT and the Basal activity (MC4R variants [2]; [5]) is listed as 108 % of WT.

For D37G, the Cell surface expression (MC4R variants [1]; ref Hughes DA, Hum Genet, 2009) is given as 100 % of WT and the Basal activity (MC4R variants [2]; ref Hughes DA, Hum Genet, 2009) is given as 83 % of WT.

In the case of “E61X (MVNSTHRGMHTSLHLWNRSSYRLHSNASESLGKGYSDGGCYEQLFVSPEVFVTLGVISLL; nonsense E61X; UniProt P32245 1-60, looked up, fragment)”, the Cell surface expression (MC4R variants [1]; [6]) is listed as 5 % of WT.

For G32E, the Basal activity (MC4R variants [2]; limited data, ref Ahituv N, Am J Hum Genet, 2007) is given as 70 % of WT.

For G34A, the Cell surface expression (MC4R variants [1]; ref Moore BS, PLoS One, 2014) is listed as 85 % of WT.

In the case of MT-II, the “cAMP Emax - Ligand no.2 (% of WT)” value (MC4R variants [3]; MC4R A219V, ligand no.2 MT-II) is listed as 34.0 % of WT and the “cAMP Emax - Ligand no.2” value (MC4R variants [3]; MC4R S36Y) is listed as 86.0 % of WT.

In the case of Q307X, the Cell surface expression (MC4R variants [1]; [6]) is listed as 40 % of WT, the Cell surface expression (MC4R variants [1]; ref Santoro N, BMC Med Genet, 2009) is listed as 31 % of WT and the Cell surface expression (MC4R variants [1]; [7]) is listed as 20 % of WT. The Basal activity (MC4R variants [2]; [7]) was 20 % of WT.

In the case of R7C, the Cell surface expression (MC4R variants [1]; [8]) is listed as 100 % of WT, the Cell surface expression (MC4R variants [1]; [9]) is listed as 45 % of WT and the Basal activity (MC4R variants [2]; [8]) is listed as 133 % of WT. For the same substance, the Basal activity (MC4R variants [2]; [9]) was 100 % of WT.

In the case of R7H, the Cell surface expression (MC4R variants [1]; [10]) is listed as 80 % of WT and the Cell surface expression (MC4R variants [1]; [11]) is listed as 100 % of WT.

In the case of R18C, the Cell surface expression (MC4R variants [1]; [12]) is given as 115 % of WT, the Cell surface expression (MC4R variants [1]; [10]) is given as 95 % of WT and the Cell surface expression (MC4R variants [1]; ref Xiang Z, Biochemistry, 2006) is given as 45 % of WT. The Basal activity (MC4R variants [2]; [12]) was 36 % of WT.

In the case of R18H, the Cell surface expression (MC4R variants [1]; [12]) is listed as 150 % of WT, the Cell surface expression (MC4R variants [1]; [10]) is listed as 95 % of WT and the Cell surface expression (MC4R variants [1]; [11]) is listed as 85 % of WT. The Basal activity (MC4R variants [2]; [12]) was 46 % of WT.
